From patent publication US20240270846A1 (published 2024)
Where a chain is given by its changes, count along the chain named. In names and notes the source's numbering stands.

B1: CE115HA000 V100cP one-arm antibody (antibody, human IgG1, kappa, L234A L235A, N297A, name in Kabat numbering)
heavy: QVQLVESGGGVVQPGRSLRLSCAASGFTFSNAWMHWVRQAPGKGLEWVAQIKAKSNNYATYYAESVKGRFTISRDDSKNSLYLQMNSLKTEDTAVYYCRYVHYGAYYGPDAWGQGTTVTVSSASTKGPSVFPLAPSSKSTSGGTAALGCLVKDYFPEPVTVSWNSGALTSGVHTFPAVLQSSGLYSLSSVVTVPSSSLGTQTYICNVNHKPSNTKVDKKVEPKSCDKTHTCPPCPAPEAAGGPSVFLFPPKPKDTLMISRTPEVTCVVVDVSHEDPEVKFNWYVDGVEVHNAKTKPREEQYASTYRVVSVLTVLHQDWLNGKEYKCKVSNKALPAPIEKTISKAKGQPREPQVYTLPPSRCELTKNQVSLSCAVKGFYPSDIAVEWESNGQPENNYKTTPPVLDSDGSFFLVSKLTVDKSRWQQGNVFSCSVMHEALHNHYTQKSLSLSPDYKDDDDK
chain: EPKSSDKTHTCPPCPAPELLGGPSVFLFPPKPKDTLMISRTPEVTCVVVDVSHEDPEVKFNWYVDGVEVHNAKTKPREEQYNSTYRVVSVLTVLHQDWLNGKEYKCKVSNKALPAPIEKTISKAKGQPREPQVCTLPPSRDELTKNQVSLWCLVKGFYPSDIAVEWESNGQPENNYKTTPPVLDSDGSFFLYSKLTVDKSRWQQGNVFSCSVMHEALHNRYTQKSLSLSP
light: DIVMTQSPLSLPVTPGEPASISCRSSQSLVHSNRNTYLHWYQQKPGQAPRLLIYKVSNRFSGVPDRFSGSGSGTDFTLKISRVEAEDVGVYYCGQGTQVPYTFGQGTKLEIKRTVAAPSVFIFPPSDEQLKSGTASVVCLLNNFYPREAKVQWKVDNALQSGNSQESVTEQDSKDSTYSLSSTLTLSKADYEKHKVYACEVTHQGLSSPVTKSFNRGEC
notes: one-arm antibody (one Fab)
B2: CE115HA000 Y97P one-arm antibody (antibody, human IgG1, kappa, L234A L235A, N297A, name in Kabat numbering)
heavy: B1 heavy with Y103P, P109V
chain: B1 chain
light: B1 light
notes: one-arm antibody (one Fab)
B3: CE115HA000 Y97R one-arm antibody (antibody, human IgG1, kappa, L234A L235A, N297A, name in Kabat numbering)
heavy: B1 heavy with Y103R, P109V
chain: B1 chain
light: B1 light
notes: one-arm antibody (one Fab)
B4: CE115HA000 Y58L one-arm antibody (antibody, human IgG1, kappa, L234A L235A, N297A, name in Kabat numbering)
heavy: B1 heavy with Y61L, P109V
chain: B1 chain
light: B1 light
notes: one-arm antibody (one Fab)
B5: CE115HA000 Y100aL one-arm antibody (antibody, human IgG1, kappa, L234A L235A, N297A, name in Kabat numbering)
heavy: B1 heavy with Y107L, P109V
chain: B1 chain
light: B1 light
notes: one-arm antibody (one Fab)
B6: CE115HA000 Y100W one-arm antibody (antibody, human IgG1, kappa, L234A L235A, N297A, name in Kabat numbering)
heavy: B1 heavy with Y106W, P109V
chain: B1 chain
light: B1 light
notes: one-arm antibody (one Fab)
B7: CE115HA000 Y97S one-arm antibody (antibody, human IgG1, kappa, L234A L235A, N297A, name in Kabat numbering)
heavy: B1 heavy with Y103S, P109V
chain: B1 chain
light: B1 light
notes: one-arm antibody (one Fab)
B8: CE115HA000 Y100P one-arm antibody (antibody, human IgG1, kappa, L234A L235A, N297A, name in Kabat numbering)
heavy: B1 heavy with Y106P, P109V
chain: B1 chain
light: B1 light
notes: one-arm antibody (one Fab)
B9: CE115HA000 Y97A one-arm antibody (antibody, human IgG1, kappa, L234A L235A, N297A, name in Kabat numbering)
heavy: B1 heavy with Y103A, P109V
chain: B1 chain
light: B1 light
notes: one-arm antibody (one Fab)
B10: CE115HA000 Y100Q one-arm antibody (antibody, human IgG1, kappa, L234A L235A, N297A, name in Kabat numbering)
heavy: B1 heavy with Y106Q, P109V
chain: B1 chain
light: B1 light
notes: one-arm antibody (one Fab)
B11: CE115HA000 Y55S one-arm antibody (antibody, human IgG1, kappa, L234A L235A, N297A, name in Kabat numbering)
heavy: B1 heavy with Y58S, P109V
chain: B1 chain
light: B1 light
notes: one-arm antibody (one Fab)
B12: CE115HA000 Y100A one-arm antibody (antibody, human IgG1, kappa, L234A L235A, N297A, name in Kabat numbering)
heavy: B1 heavy with Y106A, P109V
chain: B1 chain
light: B1 light
notes: one-arm antibody (one Fab)
B13: CE115HA000 Y97G one-arm antibody (antibody, human IgG1, kappa, L234A L235A, N297A, name in Kabat numbering)
heavy: B1 heavy with Y103G, P109V
chain: B1 chain
light: B1 light
notes: one-arm antibody (one Fab)
B14: CE115HA000 Y58Q one-arm antibody (antibody, human IgG1, kappa, L234A L235A, N297A, name in Kabat numbering)
heavy: B1 heavy with Y61Q, P109V
chain: B1 chain
light: B1 light
notes: one-arm antibody (one Fab)
B15: CE115HA000 Y97D one-arm antibody (antibody, human IgG1, kappa, L234A L235A, N297A, name in Kabat numbering)
heavy: B1 heavy with Y103D, P109V
chain: B1 chain
light: B1 light
notes: one-arm antibody (one Fab)
B16: CE115HA000 Y58S one-arm antibody (antibody, human IgG1, kappa, L234A L235A, N297A, name in Kabat numbering)
heavy: B1 heavy with Y61S, P109V
chain: B1 chain
light: B1 light
notes: one-arm antibody (one Fab)
B17: CE115HA000 Y100aS one-arm antibody (antibody, human IgG1, kappa, L234A L235A, N297A, name in Kabat numbering)
heavy: B1 heavy with Y107S, P109V
chain: B1 chain
light: B1 light
notes: one-arm antibody (one Fab)
B18: CE115HA000 Y100L one-arm antibody (antibody, human IgG1, kappa, L234A L235A, N297A, name in Kabat numbering)
heavy: B1 heavy with Y106L, P109V
chain: B1 chain
light: B1 light
notes: one-arm antibody (one Fab)
B19: CE115HA000 Y100aQ one-arm antibody (antibody, human IgG1, kappa, L234A L235A, N297A, name in Kabat numbering)
heavy: B1 heavy with Y107Q, P109V
chain: B1 chain
light: B1 light
notes: one-arm antibody (one Fab)
B20: CE115HA000 Y100V one-arm antibody (antibody, human IgG1, kappa, L234A L235A, N297A, name in Kabat numbering)
heavy: B1 heavy with Y106V, P109V
chain: B1 chain
light: B1 light
notes: one-arm antibody (one Fab)
B21: CE115HA000 Y100D one-arm antibody (antibody, human IgG1, kappa, L234A L235A, N297A, name in Kabat numbering)
heavy: B1 heavy with Y106D, P109V
chain: B1 chain
light: B1 light
notes: one-arm antibody (one Fab)
B22: CE115HA000 Y100aF one-arm antibody (antibody, human IgG1, kappa, L234A L235A, N297A, name in Kabat numbering)
heavy: B1 heavy with Y107F, P109V
chain: B1 chain
light: B1 light
notes: one-arm antibody (one Fab)
B23: CE115HA000 Y100aG one-arm antibody (antibody, human IgG1, kappa, L234A L235A, N297A, name in Kabat numbering)
heavy: B1 heavy with Y107G, P109V
chain: B1 chain
light: B1 light
notes: one-arm antibody (one Fab)
B24: CE115HA000 Y100S one-arm antibody (antibody, human IgG1, kappa, L234A L235A, N297A, name in Kabat numbering)
heavy: B1 heavy with Y106S, P109V
chain: B1 chain
light: B1 light
notes: one-arm antibody (one Fab)
B25: CE115HA000 Y100aA one-arm antibody (antibody, human IgG1, kappa, L234A L235A, N297A, name in Kabat numbering)
heavy: B1 heavy with Y107A, P109V
chain: B1 chain
light: B1 light
notes: one-arm antibody (one Fab)
B26: CE115HA000 Y59S one-arm antibody (antibody, human IgG1, kappa, L234A L235A, N297A, name in Kabat numbering)
heavy: B1 heavy with Y62S, P109V
chain: B1 chain
light: B1 light
notes: one-arm antibody (one Fab)
B27: CE115HA000 Y100K one-arm antibody (antibody, human IgG1, kappa, L234A L235A, N297A, name in Kabat numbering)
heavy: B1 heavy with Y106K, P109V
chain: B1 chain
light: B1 light
notes: one-arm antibody (one Fab)
B28: CE115HA000 Y100aK one-arm antibody (antibody, human IgG1, kappa, L234A L235A, N297A, name in Kabat numbering)
heavy: B1 heavy with Y107K, P109V
chain: B1 chain
light: B1 light
notes: one-arm antibody (one Fab)
B29: CE115HA000 Y100aD one-arm antibody (antibody, human IgG1, kappa, L234A L235A, N297A, name in Kabat numbering)
heavy: B1 heavy with Y107D, P109V
chain: B1 chain
light: B1 light
notes: one-arm antibody (one Fab)
B30: CE115HA000 Y58N one-arm antibody (antibody, human IgG1, kappa, L234A L235A, N297A, name in Kabat numbering)
heavy: B1 heavy with Y61N, P109V
chain: B1 chain
light: B1 light
notes: one-arm antibody (one Fab)
B31: CE115HA000 Y100G one-arm antibody (antibody, human IgG1, kappa, L234A L235A, N297A, name in Kabat numbering)
heavy: B1 heavy with Y106G, P109V
chain: B1 chain
light: B1 light
notes: one-arm antibody (one Fab)
B32: CE115HA000 D101A one-arm antibody (antibody, human IgG1, kappa, L234A L235A, N297A, name in Kabat numbering)
heavy: B1 heavy with P109V, D110A
chain: B1 chain
light: B1 light
notes: one-arm antibody

Biological target: T1, CD3 epsilon homodimer protein (UniProt P07766 23-126)
T1 construct: Immobilized on Sensor chip CM4 by amine coupling; construct not described; also called CD3 (CD3 epsilon)
Experiment: SPR Biacore T200, CD3 epsilon homodimer on CM4 chip, antibody as analyte;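 further: Amine-coupled CD3 epsilon homodimer, run at 25 °C in HBS-EP+ buffer, ratio is bound amount of each single-residue H chain variant over that of the parent antibody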
T1 sequence (P07766 23-126): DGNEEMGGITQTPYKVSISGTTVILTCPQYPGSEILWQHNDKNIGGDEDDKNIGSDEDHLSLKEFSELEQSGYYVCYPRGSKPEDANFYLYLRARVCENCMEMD

In order of falling “ratio of amounts bound (Y/X vs CE115HA000)” value:
1. B23  1.23
2. B27  1.07
3. B31  1.07
4. B6  1.03
5. B26  0.94
6. B12  0.9
7. B28  0.9
8. B22  0.87
9. B24  0.81
10. B10  0.8
11. B18  0.7
12. B17  0.64
13. B25  0.62
14. B20  0.6
15. B19  0.56
16. B21  0.52
17. B5  0.48
18. B8  0.48
19. B30  0.33
20. B29  0.31
21. B3  0.27
22. B4  0.27
23. B11  0.26
24. B15  0.24
25. B1  0.2
26. B14  0.19
27. B7  0.18
28. B13  0.18
29. B16  0.18
30. B9  0.16
31. B2  0.11

Biological target: T2, CD3 epsilon homodimer protein (UniProt P07766 23-126)
T2 construct: Construct of the homodimer protein is not described; also called CD3 (CD3 epsilon)
Experiment: SPR (Biacore T200), CD3 epsilon homodimer on CM4 chip, one-arm antibody as analyte; ratio to unaltered CE115HA000;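 further: surface plasmon resonance run at 25 °C with HBS-EP+ as running buffer, CD3 epsilon homodimer attached by amine coupling, antibody passed over as analyte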
T2 sequence (P07766 23-126): as above

In the case of B32, the “KD ratio (KD value of CE115HA000/KD value of the altered form)” value is reported as 0.86.
